From patent US20220074937A1

Key:
[1] = molecular target: CD19 CAR containing FMC63 scFv, on the cell surface (CD19 CAR-T cells, CD19 CAR-293T cells); experiment: flow cytometry, CAR positive cells diluted 1:32 in negative cells; AF488-CD19sIg1-4 against SSC-A; data reproduced from De Oliveira SN, et al., J Transl Med, 2013
[2] = molecular target: CD19 CAR containing FMC63 scFv, on the cell surface (CD19 CAR-T cells, CD19 CAR-293T cells); experiment: flow cytometry, CAR positive cells unmixed; AF488-CD19sIg1-4 against SSC-A; data reproduced from De Oliveira SN, et al., J Transl Med, 2013
[3] = molecular target: CD19 CAR containing FMC63 scFv, on the cell surface (CD19 CAR-T cells, CD19 CAR-293T cells); experiment: flow cytometry, CAR positive cells diluted 1:8 in negative cells; AF488-CD19sIg1-4 against SSC-A; data reproduced from De Oliveira SN, et al., J Transl Med, 2013
[4] = molecular target: CD19 CAR containing FMC63 scFv, on the cell surface (CD19 CAR-T cells, CD19 CAR-293T cells); experiment: flow cytometry, CAR positive cells diluted 1:64 in negative cells; AF488-CD19sIg1-4 against SSC-A; data reproduced from De Oliveira SN, et al., J Transl Med, 2013
[5] = molecular target: CD19 CAR containing FMC63 scFv, on the cell surface (CD19 CAR-T cells, CD19 CAR-293T cells); experiment: flow cytometry, CAR positive cells diluted 1:128 in negative cells; AF488-CD19sIg1-4 against SSC-A; data reproduced from De Oliveira SN, et al., J Transl Med, 2013
[6] = molecular target: CD19 CAR containing FMC63 scFv, on the cell surface (CD19 CAR-T cells, CD19 CAR-293T cells); experiment: flow cytometry, CAR positive cells diluted 1:16 in negative cells; AF488-CD19sIg1-4 against SSC-A; data reproduced from De Oliveira SN, et al., J Transl Med, 2013

Chain of CD19 CAR containing FMC63 scFv, on the cell surface (CD19 CAR-T cells, CD19 CAR-293T cells) (chain, as listed by the source): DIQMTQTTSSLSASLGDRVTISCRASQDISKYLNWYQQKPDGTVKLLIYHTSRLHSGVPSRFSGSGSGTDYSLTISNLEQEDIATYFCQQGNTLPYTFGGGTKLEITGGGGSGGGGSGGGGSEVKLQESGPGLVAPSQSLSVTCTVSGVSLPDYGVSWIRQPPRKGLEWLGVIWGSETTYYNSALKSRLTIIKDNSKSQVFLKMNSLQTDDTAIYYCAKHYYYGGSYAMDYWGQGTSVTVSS

% of cells in the AF488-CD19sIg1-4 positive gate, 1:32 [1]: 2.96%
% of cells in the AF488-CD19sIg1-4 positive gate, CAR positive cell (unmixed) [2]: 65.9%
% of cells in the AF488-CD19sIg1-4 positive gate, 1:8 [3]: 9.24%
% of cells in the AF488-CD19sIg1-4 positive gate, 1:64 [4]: 1.34%
% of cells in the AF488-CD19sIg1-4 positive gate, 1:128 [5]: 0.646%
% of cells in the AF488-CD19sIg1-4 positive gate, 1:16 [6]: 4.28%
Substance: CD19/Fc (Fc fusion)
